Reference: the DeepSol protein solubility set

Assay: soluble on expression in E. coli; label from the status in PepcDB or PDB records

Sequence: MGSDKIHHHHHHMTTSAVSIPMPSIPRRRRSPEDVLAAAPVPGPKKVLLAAPRGYCAGVDRAVIAVEKALEHYGPPVYVRKQIVHNVHVVSSLEEKGAIFVDETDEVPEGALVIFSAHGVSPAVVQSAEDRGLRTIDATCPLVTKVHREAVRFAKDDFDILLIGHDGHEEVEGTAGEAPEHIQIINGPHEVDKVTVRDPEKVIWLSQTTLSVDETMETVRLLKERFPTLQDPPSDDICYATTNRQVAIKKISPQADLVIVVGSANSSNSVRLVEVALEYGAKASYRVDFANEVDEAWFEGVATVGVTSGASVPEVLVKDVLRLLADYGYGTVEEVVTAEEDLLFSLPKELRATLKKSGDVTRALGGRGARA
- soluble on expression in E. coli: not soluble

Sequence: MGSDKIHHHHHHANNDEWVTCPPGGILAIGTMKIPNADTPRDFFIALDNGDNVLPADTADIRNRKYTVAEGQRVFVGYLQMGKEKPGYENGKIFTIEDILTKEIIPLTEATADSIGDDRINVTAHALTKDYLTIEYQYLGSMNENKKHMLNLVQNEITGPIKDDGYIYLEFRHNAFNDSPNQLGSSLVSFKLDSIAEQLATAKGIKLRVNTIYDNIQYVTIDINEDKNLKIKSFHSQ
- soluble on expression in E. coli: not soluble

Sequence: DRCYNCGGLDHHAKECKLPPQPKKCHFCQSISHMVASCPLKAQQGPSAQG
- soluble on expression in E. coli: soluble

Sequence: MYEIPWSKPVNINMLDGRCRTVVGPLDAMHCLQSEWPVRDGAYYGCAIRACNAALKRRKRPEDARAAFIAALREAFLTVVPMQEEGHGPRPLE
- soluble on expression in E. coli: not soluble

Sequence: MADVKEKINLLDVIPFRSENITAEKGSDGTVTIAFPRFKYEWMRRFLLPKGMSADIHVRLEDHGTAVWELIDGKRTVRRIIEELAEHFNYEENYESRITAYITQLQKDGFVKLVIEN
- soluble on expression in E. coli: not soluble

Sequence: DLILPFYKAGKVSFYQGDLDVLINFLEPDVLVNAANGDLRHVGGVARAIDVFTGGKLTKRSKEYLKSSKAIAPGNAVLFENVLEHLSVLNAVGPRNGDSRVEGKLCNVYKAIAKCDGKILTPLISVGIFKVKLEVSLQCLLKTVTDRDLNVFVYTDQERVTIENFFNG
- soluble on expression in E. coli: soluble

Sequence: MGSDKIHHHHHHMIKLKTFGSFTVGNDISSVQEGAWRSEKLEKLFVYLAMNRNRGVCIEDISEAIWQVEEETDNPVGALKNLAYRLRKALRDASFDEECIVSVRGGLYKWNDDVEVTIDVEEFDRYINEAEMAFCRSKETAIESYEKAIALYHGDFLPLRTDTHWFMTLNAFYHSRYVNTVKALAKLYIDTGCYEKLEQLCIRAIVYERSDEQIYSYLIMARMRTKKVQMAFDTYETAKAIMDKDLGVRKTVMLNKVYEELLSVTKGVSSYNIDEVKEDINEESMEGVFMCGYPVFKEIYHLEVRKSARSTIPESLVLVTVVPMYSSQPDKNHSQMKDSMHTLERALRKCLRVGDVAAKYSDSQYIVLLSKCSCDTASDVMKRIIDRFNHTCDTHSNMTIHFDIEPVSCYSSFVSDK
- soluble on expression in E. coli: not soluble

Sequence: MGSDKIHHHHHHMPNMGIEKLYVSQQLTDSAAGMTFTKPQYYKYVQELSLKPKVNSASAYAENRKVDQDTQFDSCDVSINLFQMTSSQRAFMLGQSLAGGGGAIGALNDKAPWITLLYKAPIKVDDTIYYRYGVIYKTQFQPPDDDYKTTEGKPDFSQVPKISGSAQPTEWSFKDGKLEKHPWEWHVDTCDPNCPENIDDTWFNSVSIPSLVTYGSLSLSASSPKDGATGISLDTKPSLTFNNPIMNATSILLYNVSDGATVNTTTSSDSSGKIITITPSTNLVANKNYVLVVQDVTDLYGQTLDTQLIRFTTATAAS
- soluble on expression in E. coli: not soluble

Sequence: ASLIEDIDKKHLVLLRDGRTLIGFLRSIDQFANLVLHQTVERIHVGKKYGDIPRGIFVVRGENVVLLGEI
- soluble on expression in E. coli: not soluble

Sequence: MNNPKPCEWKSNELSRGYIADYKAFNFVDGEGVRCSLYVSGCPFHCEGCYNKAAQSFKYGKPYTKELEDDILKDIGHESVQGLTLLGGEPFLNTATCLSVVKRIRATYGKTKDIWSWTGYTWDEMMQETTDKLELLSLIDVLVDGRFEQKLFDPNLAFRGSSNQRIIDVQKSLAADEVVLYELLEHHHHHH
- soluble on expression in E. coli: soluble

Sequence: SDQEEGLKALDNIVTQFNAYEDFLDSQITTVDLYYLEDETLARQLVELGYRGTGERVKREDFEARKAAIEIARLAERAQQKTLTSAGKDLQDNFLTALAMREEDNRSGKLSSVIFIRDRNSHGQEISGYIDYAHRLKTEDFEVYFTGKKRLLPRPTDISFYNWDADIAVSNSSPNYQVIADNPEGLLFRYKRDRKILNVDPKAQPGDNSTRITILTELYIQAVIFDHISRRKT
- soluble on expression in E. coli: soluble

Sequence: MSLGNARMYEALRDYGDRFDTVGIFTFEVDETGTITETGTSISSMLPYIQKWPHIKWLLTIMNHGIANIFTALRNNENGAKDKFLTEIIRIMNKYPWCAGVDIDLERGGGYENKDAANALFRDIYNTVKSYDATKLVNICLPGMIGVQGSVGGENWCVYADLNDYCDTAAIMSYGMAWAGSAPGPVSPRDWLEGIYDYAVSVMSPDKIFMGLPAYGWNWRIHDTPENLGITYRGVSNTYYAAKYWMTGVYNFTGDAPPQPFIPIVAYWDDYNKVPWALPHVYDYMEGWDAVSWEYPLLKGVYNRRRYLTSYGKEQKAEFGTIYIDRNGVPDEYEGNVIITDEMTSLGDAQASAEYRFEIREAGYYDIAVQLCFPYWDKNAIIVSLDGISKTFSENEGHHHHHH
- soluble on expression in E. coli: not soluble

Sequence: MSALYRRFRPLTFQEVVGQEHVKEPLLKAIREGRLAQAYLFSGPRGVGKTTTARLLAMAVGCQGEDPPCGVCPHCQAVQRGAHPDVVEIDAASNNSVEDVRELRERIHLAPLSAPRKVFILDEAHMLSKSAFNALLKTLEEPPPHVLFVFATTEPERMPPTILSRTQHFRFRRLTEEEIAFKLRRILEAVGREAEEEALLLLARLADGALRDAESLLERFLLLEGPLTRKEVERALGLPPREALAEIAASLARGKTAEALGLARRLYGEGYAPRSLVSGLLEVFREGLYAAFGLAGTPLPAPPQALIAAMTALDEAMERLARRSDALSLEVALLEAGRALAAEALPQPTGAPSPEVGPKPESPPAPEPPRPEEAPDLRERWRAFLEALRPTLRAFVREARPEVREGQLCLAFPEDKAFHYRKASEQKARLLPLAQAHFGVEEVVLVLEGEKKSLSPRPRPAPPPEAPAPPGPPEEEVEAEEAAEEAPEEALRRVVRLLGGRVLWVRRPRTREAPEEEPLSQDEIGGTGI
- soluble on expression in E. coli: soluble

Sequence: MVLLHKSTHIFPTDFASVSRAFFNRYPNPYSPHVLSIDTISRNVDQEGNLRTTRLLKKSGKLPTWVKPFLRGITETWIIEVSVVNPANSTMKTYTRNLDHTGIMKVEEYTTYQFDSATSSTIADSRVKFSSGFNMGIKSKVEDWSRTKFDENVKKSRMGMAFVIQKLEEARNPQF
- soluble on expression in E. coli: not soluble

Sequence: GIDPFTMVALSLKISIGNVVKTMQFEPSTMVYDACRMIRERIPEALAGPPNDFGLFLSDDDPKKGIWLEAGKALDYYMLRNGDTMEYRKKQRPLKIRMLDGTVKTIMVDDSKTVTDMLMTICARIGITNHDEYSLVRELMEEKKDELNWLDHGRTLREQGVEEHETLLLRRKFFYSDQ
- soluble on expression in E. coli: soluble

Sequence: MKPMTQEPSTLYAKLLGETASITWTELQPFFAKGALLWVELPLDLIEVAEAVAENDAARVSAWLADGQVGKVSETKALELVETDPQLWAVVVAPWVLIQNRANV
- soluble on expression in E. coli: not soluble

Sequence: MHHHHHHSSGVDLGTENLYFQSMSSVTASAAPGTASLVPDYWIDGSNRDALSDFFEVESELGRGATSIVYRCKQKGTQKPYALKVLKKTVDKKIVRTEIGVLLRLSHPNIIKLKEIFETPTEISLVLELVTGGELFDRIVEKGYYSERDAADAVKQILEAVAYLHENGIVHRDLKPENLLYATPAPDAPLKIADFGLSKIVEHQVLMKTVCGTPGYCAPEILRGCAYGPEVDMWSVGIITYILLCGFEPFYDERGDQFMFRRILNCEYYFISPWWDEVSLNAKDLVRKLIVLDPKKRLTTFQALQHPWVTGKAANFVHMDTAQKKLQEFNARRKLKAAVKAVVASSRLG
- soluble on expression in E. coli: soluble

Sequence: MAHHHHHHMNERTSGGAMSTIQFGGTMTTTLSQAKNMDFSNDSPRRRRNRHNVILFPNHRDRLACDPLNFFCVYATYEYRWSDTTLEAERNIFALVDSMVAAVRKAFDDAFERWKNMPAFVQHAHTLRSAVSFSSALSTNTLLHMYSHADNVARHTTLRKTLGSMLPSLPAANPRQEMNICSASSAGRSTFSKGALPRAAHRERREEEEEAVMKNLAKQWIPPHNGPKCRLVLDIVASRKTLGDDPVISDPYRLGQKVFSFTRRNYLREVINTFVGISDSGVTLVGRDILYPFRSTGGGSPKPSVKMNSLSGNRRNLSGSAISGLPIDSGDILGVAASGGVAAKVSGFEQILANTIPVPRMVPVPPTNTEKVDNIRLLVCFPPNDISGSVA
- soluble on expression in E. coli: soluble

Sequence: MMTVLRSQIESILLVVDQPASVAALARATEAAPETVTSVLRSMAQEFEDRGSGIEVRESPEGWRLYTVKRNADVVEKFLLDGSHTKLSRAALETLAVVAYRQPATRAQVAAVRGVNVDGVMRTLQLRGLIREVAINPGTEGVNGSAHRYETTELFLDLLGIDSLERLPDLAPLLPDIDSIDEYF
- soluble on expression in E. coli: not soluble

Sequence: MMIVKRFILGEYSTNTYLVVSGDEGILIDVAENPSEVIDYILTNNIKLKSIYATHGHFDHVLGVTEVKKYFNVPFFLHRSDLDLLRRDERTKGIVPDGFIDEKSIIKIGNEELKVIETPGHTMGSVCYIFDDGIFTGDTLFNGSIGRYDLGGDKNLLKKSLNRLMELNDGLTVYPGHGFFTTLGYEKLTNPFLNGEFEW
- soluble on expression in E. coli: soluble

Sequence: MKCTKCGKPASVKLRHYNIKLCKEHFNEFIEQRVEKAIKKFKMFGRNSKILIAVSGGKDSVSLWHMLKKLGYEVDALFIRAGKSGMVQKAQEIVEKNAELLNTKLHIVDATEYFGGLSTQEISIMLRRPVCSICGVVRRYLMNKFAYENGYDVVVTGHNLNDEASVLLGNILHWQEGYLERQWPLLPKTHEKLVPKAKPLVLNYEEDIKLYATLNEIPHLEMACPFSVGATSLVYKKILRELEEEQPGITLNFYLGFLKRKKEPKFEVEGLRECKECGYPTTAEVCSFCRLRKQVEKRKNKTPA
- soluble on expression in E. coli: soluble

Sequence: MGSDKIHHHHHHLSISIGSIKRAEAGKNILYRTLVQLSEFFHISIEDLIGDIPVSLWDYVRERPTQLIPCIGRDWELSLLQKLQLSSKTGLKTACVYGMQGLGKTSLVRHFLSRLDQTNWRALYLCSLDQGTFLRRFICTLLDISEIFDDEQLRFRIKMISTSPLVYFYLLRLSGLVLHKSELQAINNLSENRLHEVEVLSVMGLIQNFKQRKVSVLAIDSLHILNEGQLRVIKIFTQNMITQPILIIFSLTDVHRLLYLPDWLQSSNQIQLKPLQAIAMNALVNNEVEMNPCQPMKLAAYKKIVVQRARGNPLILKALIKSKRPDQDFPEEMVNSVQGMLTQLTGIECRLLQFLAACGPCVSIDTLELFNSQLSEPCICLLHRLVRIGFLYPRSECYIFRHILIWEIVKAQMNDSDTASVYSEQHNRLNA
- soluble on expression in E. coli: not soluble

Sequence: GGPTIMVALANPRTESALITLASALAQHEDGRVLATHIATVPDQTALETAAANRDRIDATSESLLDTAKADAEAFDVPIETKTILSHRGIEEVFDAARTNHADTVVMGYGGTQFAGGRAEGTLDELAHDLPCDFLVLDGQDL
- soluble on expression in E. coli: not soluble

Sequence: MAHHHHHHMQPMVLPYVDRKPPISKVMDARVLVWRESERMLRNGEGAAECSYAQKLQVLRSQQLADARKYMDTSAAMRSVKPVLATSSVDADDDDEFCRKRSRESEGPSVDEIRRFEGKLGETLALELTLWSLRRGSHGGVRSQRYTTALHALQDTQKLLRKTLQQMEEINALRFLEQQQFLKVNSEKARLLHVRLRNVRALENILRGNGKRRGSTLLATLE
- soluble on expression in E. coli: not soluble

Sequence: MGSDKIHHHHHHMEFMKQLGSCCQYCAYPLSDDTYLVCGQCVRKRPSFDSAYIAYRFEEPLRSLIHQFKYHNGLYLASFLKQLLLNALPKNALKPDCLIPVPMHPKRLKRRGFNQAGVLTRLLARQLNIPYDLYYCQKIINTASQANLDGEQRRKNLRHAFYVSAVTYEHVMIVDDLLTTGSTANEMAHTLKNAGVKRVDICCCARAVTKN
- soluble on expression in E. coli: not soluble
